Values quoted from earlier work in PMC9256694.

Biological target: IL-2 receptor beta/gamma common chain (Homo sapiens) (UniProt P14784)
Chain of UniProt P14784 (P14784 27-240, chain 1 of 2): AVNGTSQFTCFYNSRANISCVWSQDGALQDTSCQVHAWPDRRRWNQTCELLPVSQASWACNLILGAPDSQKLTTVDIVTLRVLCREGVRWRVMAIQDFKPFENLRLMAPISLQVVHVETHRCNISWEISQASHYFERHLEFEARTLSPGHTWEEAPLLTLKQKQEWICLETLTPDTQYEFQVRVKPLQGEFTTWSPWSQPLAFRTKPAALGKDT
Chain of UniProt P14784 (P31785 23-262, chain 2 of 2, further chain): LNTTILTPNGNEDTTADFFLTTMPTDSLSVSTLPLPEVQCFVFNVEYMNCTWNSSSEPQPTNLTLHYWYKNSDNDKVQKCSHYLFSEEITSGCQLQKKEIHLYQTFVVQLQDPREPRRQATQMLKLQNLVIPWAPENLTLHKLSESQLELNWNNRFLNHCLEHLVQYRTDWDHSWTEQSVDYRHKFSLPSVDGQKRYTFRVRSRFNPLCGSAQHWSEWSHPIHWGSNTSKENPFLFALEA

Chain of IL-2 (P60568 21-153): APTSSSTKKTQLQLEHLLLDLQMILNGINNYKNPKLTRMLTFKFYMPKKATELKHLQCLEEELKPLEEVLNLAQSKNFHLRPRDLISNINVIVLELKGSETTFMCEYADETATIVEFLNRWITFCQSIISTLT

Kd: 1 nM
Substance: IL-2 (from UniProt P60568)
